Data reported in US20090149339A1 (published 2009).
Ends that are not written are not given here. * marks the point of attachment. Biotin = O=C1N[C@H]2[C@H](CS[C@H]2CCCCC(=O)*)N1

B1: CD5 C-terminal PL peptide AA49L, biotinylated (peptide)
peptide: Biotin-SMQPDNSSDSDYDLHGAQRL
B2: LPAP C-terminal PL peptide AA30L, biotinylated (peptide)
peptide: Biotin-AWDDSARAAGGQGLHVTAL

biological target: T1, GST-KIAA0316 PDZ domain fusion protein (KIAA0316 AA197-284; PDZ domain 1 of 1) (UniProt P08515 1-218 = GST); experiment: A/G assays
T1 construct: also called K316
T1 sequence (P08515 1-218, tags or fused parts left off): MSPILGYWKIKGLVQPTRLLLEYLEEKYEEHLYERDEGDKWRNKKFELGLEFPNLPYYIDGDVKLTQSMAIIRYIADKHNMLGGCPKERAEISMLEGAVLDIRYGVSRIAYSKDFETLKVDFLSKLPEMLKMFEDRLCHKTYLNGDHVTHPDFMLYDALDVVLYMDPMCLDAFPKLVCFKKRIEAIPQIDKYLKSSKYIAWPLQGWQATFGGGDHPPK

Binder	binding result
B1	no binding
B2	no binding

biological target: T2, GST-TAX43 PDZ domain fusion protein (human tax interaction protein 43 AA15-85; PDZ domain 1 of 1) (human, UniProt P08515 1-218 = GST); experiment: A/G assays
T2 construct: also called TX 43

Binder	binding result
B1	no binding
B2	no binding

biological target: GST-PSD95 PDZ domain fusion protein (human post-synaptic density protein 95 AA387-724; PDZ domains 1-3 of 3) (human, UniProt P08515 1-218 = GST); experiment: A/G assays
Sequence (P08515 1-218, tags or fused parts left off): as above

Binder	binding result
B1	no binding
B2	no binding

biological target: T3, GST-KIAA0303 PDZ domain fusion protein (KIAA0303 AA652-742; PDZ domain 1 of 1) (UniProt P08515 1-218 = GST); experiment: A/G assays
T3 construct: also called K303
T3 sequence (P08515 1-218, tags or fused parts left off): as above

Binder	binding result
B1	no binding
B2	no binding

biological target: GST-DVL1 PDZ domain fusion protein (human dishevelled segment polarity protein homolog AA248-340); PDZ domain … (human, UniProt P08515 1-218 = GST); experiment: A/G assays
Sequence (P08515 1-218, tags or fused parts left off): as above

Binder	binding result
B1	no binding
B2	no binding

biological target: GST-LIM PDZ domain fusion protein (Human LIM protein AA29-112; PDZ domain 1 of 1) (human, UniProt P08515 1-218 = GST); experiment: A/G assays
Sequence (P08515 1-218, tags or fused parts left off): as above

Binder	binding result
B1	no binding
B2	no binding

biological target: T4, GST-RGS12 PDZ domain fusion protein (human regulator of G-protein signalling 12 AA35-103; PDZ domain 1 of 1) (human, UniProt P08515 1-218 = GST); experiment: A/G assays
T4 construct: also called RSG12
T4 sequence (P08515 1-218, tags or fused parts left off): as above

Binder	binding result
B1	no binding
B2	no binding

biological target: T5, GST-MPP2 PDZ domain fusion protein (maguk p55 subfamily member 2 (DLG2) AA185-273; PDZ domain 1 of 1) (UniProt P08515 1-218 = GST); experiment: A/G assays
T5 construct: also called MMP2
T5 sequence (P08515 1-218, tags or fused parts left off): as above

Binder	binding result
B1	no binding
B2	no binding

biological target: GST-PTN-4 PDZ domain fusion protein (protein-tyrosine phosphatase meg1 AA774-862; PDZ domain 1 of 1) (UniProt P08515 1-218 = GST); experiment: A/G assays
Sequence (P08515 1-218, tags or fused parts left off): as above

Binder	binding result
B1	no binding
B2	no binding

biological target: T6, GST-KIAA0559 PDZ domain fusion protein (KIAA0559 AA766-870; PDZ1 of 1) (UniProt P08515 1-218 = GST); experiment: A/G assays
T6 construct: also called K559
T6 sequence (P08515 1-218, tags or fused parts left off): as above

Binder	binding result
B1	no binding
B2	no binding

biological target: GST-prIL16 PDZ domain fusion protein (putative interleukin 16 precursor AA170-383; PDZ domains 1-2 of 2) (UniProt P08515 1-218 = GST); experiment: A/G assays
Sequence (P08515 1-218, tags or fused parts left off): as above

Binder	binding result
B1	no binding
B2	no binding

biological target: GST-AF6 PDZ domain fusion protein (af-6 protein AA985-1077; PDZ domain 1 of 1) (UniProt P08515 1-218 = GST); experiment: A/G assays
Sequence (P08515 1-218, tags or fused parts left off): as above

Binder	binding result
B1	no binding
B2	no binding

biological target: GST-NOS1 PDZ domain fusion protein (human neuronal nitric oxide synthase; PDZ domain 1 of 1) (human, UniProt P08515 1-218 = GST); experiment: A/G assays
Sequence (P08515 1-218, tags or fused parts left off): as above

Binder	binding result
B1	no binding
B2	no binding

biological target: T7, GST-TAX33 PDZ domain fusion protein (tax interaction protein 33 AA73-162; PDZ domain 1 of 1) (UniProt P08515 1-218 = GST); experiment: A/G assays
T7 construct: also called TX33

Binder	binding result
B1	no binding
B2	no binding

biological target: GST-MPP1 PDZ domain fusion protein (55 Kd erythrocyte membrane protein AA101-186; PDZ domain 1 of 1) (UniProt P08515 1-218 = GST); experiment: A/G assays
Sequence (P08515 1-218, tags or fused parts left off): as above

Binder	binding result
B1	no binding
B2	no binding

biological target: T8, GST-41.8 kD PDZ domain fusion protein (hypothetical 41.8 kD protein AA4-85; PDZ domain 1 of 1) (UniProt P08515 1-218 = GST); experiment: A/G assays
T8 construct: also called hypoth
T8 sequence (P08515 1-218, tags or fused parts left off): as above

Binder	binding result
B1	no binding
B2	no binding

biological target: GST-LIMK2 PDZ domain fusion protein (human LIM domain kinase 2 AA185-275; PDZ domain 1 of 1) (human, UniProt P08515 1-218 = GST); experiment: A/G assays
Sequence (P08515 1-218, tags or fused parts left off): as above

Binder	binding result
B1	no binding
B2	no binding

biological target: T9, GST-TAX2 PDZ domain fusion protein (human tax interaction protein 2 AA54-140; PDZ domain 1 of 1) (human, UniProt P08515 1-218 = GST); experiment: A/G assays
T9 construct: also called TX 2
T9 sequence (P08515 1-218, tags or fused parts left off): as above

Binder	binding result
B1	no binding
B2	no binding

biological target: GST-MINT3 PDZ domain fusion protein (human MINT3 AA11-52; PDZ domain 1 of 1) (human, UniProt P08515 1-218 = GST); experiment: A/G assays
Sequence (P08515 1-218, tags or fused parts left off): as above

Binder	binding result
B1	no binding
B2	no binding

biological target: T10, GST-TAX40 PDZ domain fusion protein (human tax interaction protein 40 AA35-137; PDZ domain 1 of 1) (human, UniProt P08515 1-218 = GST); experiment: A/G assays
T10 construct: also called TX 40

Binder	binding result
B1	no binding
B2	no binding

biological target: T11, GST-SYN1a PDZ domain fusion protein (alpha1-syntrophin AA96-189; PDZ domain 1 of 1) (UniProt P08515 1-218 = GST); experiment: A/G assays
T11 construct: also called SYN 1 alpha; SYNTR 1 alpha
T11 sequence (P08515 1-218, tags or fused parts left off): as above

Binder	binding result
B1	no binding
B2	no binding

biological target: T12, GST-CBP PDZ domain fusion protein (Cytohesin binding protein HE AA85-175; PDZ domain 1 of 1) (UniProt P08515 1-218 = GST); experiment: A/G assays
T12 construct: also called Prot
T12 sequence (P08515 1-218, tags or fused parts left off): as above

Binder	binding result
B1	no binding
B2	no binding

biological target: T13, GST-NeDLG PDZ domain fusion protein (presynaptic protein sao102, neuroendocrine-dlg; PDZ domains 1-2 of 3) (UniProt P08515 1-218 = GST); experiment: A/G assays
T13 construct: also called NeDLG1
T13 sequence (P08515 1-218, tags or fused parts left off): as above

Binder	binding result
B1	no binding
B2	no binding

biological target: GST-TIAM1 PDZ domain fusion protein (T-lymphoma invasion and metastasis inducing protein 1 AA1001-1088); PDZ 1 … (UniProt P08515 1-218 = GST); experiment: A/G assays

Binder	binding result
B1	no binding
B2	no binding

biological target: T14, GST-CASK PDZ domain fusion protein (CASK AA495-584; PDZ domain 1 of 1) (mouse, UniProt P08515 1-218 = GST); experiment: A/G assays
T14 construct: also called mCASK
T14 sequence (P08515 1-218, tags or fused parts left off): as above

Binder	binding result
B1	no binding
B2	no binding
